Measurements published in patent publication US20120003299A1 (KYOTO UNIVERSITY, published 2012).

How the values were obtained:
recombinant human Hsp90 [1] = target: T1, recombinant human Hsp90 (human, UniProt P07900 1-732); test: SPR competition: Hsp90 pre-mixed with 14.11 uM peptide, injected over immobilized Hop TPR2A
T1 construct: The tag is placed first here only because pDEST17 is named; also called heat shock protein 90; not shown: histidine tag from E. coli expression vector pDEST17-Hsp90

recombinant human Hsp90 [2] = target: T1, recombinant human Hsp90; test: SPR competition: Hsp90 without peptide (0 uM, reference) over immobilized Hop TPR2A
recombinant human Hsp90 [3] = target: T1, recombinant human Hsp90; test: SPR competition: Hsp90 pre-mixed with 705.5 uM peptide, injected over immobilized Hop TPR2A
recombinant human Hsp90 [4] = target: T1, recombinant human Hsp90; test: SPR competition: Hsp90 pre-mixed with 282.2 uM peptide, injected over immobilized Hop TPR2A
recombinant human Hsp90 [5] = target: T1, recombinant human Hsp90; test: SPR competition: Hsp90 pre-mixed with 141.1 uM peptide, injected over immobilized Hop TPR2A
recombinant human Hsp90 [6] = target: T1, recombinant human Hsp90; test: SPR competition: Hsp90 pre-mixed with 1.411 uM peptide, injected over immobilized Hop TPR2A

RKFSAAIGYNKY (Control peptide) [TPR scramble peptide] was tested, and the “Binding of Hsp90 (%)” value (recombinant human Hsp90 [1]) was 100%, the “Binding of Hsp90 (%)” value (recombinant human Hsp90 [2]) was 100% and the “Binding of Hsp90 (%)” value (recombinant human Hsp90 [3]) was 88.9%. For the same binder, the “Binding of Hsp90 (%)” value (recombinant human Hsp90 [4]) was 90.7%, the “Binding of Hsp90 (%)” value (recombinant human Hsp90 [5]) was 100% and the “Binding of Hsp90 (%)” value (recombinant human Hsp90 [6]) was 100%.

With KAYARIGNSYFK [TPR peptide (KAYARIGNSYFK)] the “Binding of Hsp90 (%)” value (recombinant human Hsp90 [1]) was 84.6%, the “Binding of Hsp90 (%)” value (recombinant human Hsp90 [2]) was 100% and the “Binding of Hsp90 (%)” value (recombinant human Hsp90 [3]) was 0%. For the same binder, the “Binding of Hsp90 (%)” value (recombinant human Hsp90 [4]) was 29.8%, the “Binding of Hsp90 (%)” value (recombinant human Hsp90 [5]) was 72.3% and the “Binding of Hsp90 (%)” value (recombinant human Hsp90 [6]) was 88.2%.
